These results are taken from US20160291016.

For the series, the target named is T1, phosphatidylinositol(4) phosphate 5 kinase type 1 gamma (PIPK1γ) of mouse osteoblasts, O70161.
T1 chain: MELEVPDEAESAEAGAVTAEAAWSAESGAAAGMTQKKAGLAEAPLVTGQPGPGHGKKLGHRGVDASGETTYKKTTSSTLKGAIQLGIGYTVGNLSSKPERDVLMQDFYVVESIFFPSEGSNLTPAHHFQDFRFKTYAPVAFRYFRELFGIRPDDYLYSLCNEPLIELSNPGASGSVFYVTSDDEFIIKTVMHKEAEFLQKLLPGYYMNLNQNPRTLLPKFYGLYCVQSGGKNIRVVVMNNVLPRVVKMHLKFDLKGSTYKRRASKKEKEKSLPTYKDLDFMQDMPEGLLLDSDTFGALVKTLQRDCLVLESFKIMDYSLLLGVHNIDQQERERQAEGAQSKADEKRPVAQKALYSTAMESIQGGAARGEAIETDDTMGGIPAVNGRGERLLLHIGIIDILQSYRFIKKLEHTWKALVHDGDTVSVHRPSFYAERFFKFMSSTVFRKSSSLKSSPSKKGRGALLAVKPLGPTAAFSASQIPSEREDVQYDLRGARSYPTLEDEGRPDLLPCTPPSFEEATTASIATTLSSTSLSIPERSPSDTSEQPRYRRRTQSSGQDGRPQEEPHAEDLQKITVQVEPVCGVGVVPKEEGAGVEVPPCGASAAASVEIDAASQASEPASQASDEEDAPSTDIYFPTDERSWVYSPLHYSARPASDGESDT

B1: protein tyrosine phosphatase µ (PTPµ) of mouse osteoblasts (protein)
chain: ETFSGGCLFDEPYSTCGYSQADEDDFNWEQVNTLTKPTSDPWMPSGSFMLVNTSGKPEGQRAHLLLPQLKENDTHCIDFHYFVSSKSNAAPGLLNVYVKVNNGPLGNPIWNISGDPTRTWHRAELAISTFWPNFYQVIFEVVTSGHQGYLAIDEVKVLGHPCTRTPHFLRIQNVEVNAGQFATFQCSAIGRTVAGDRLWLQGIDVRDAPLKEIKVTSSRRFIASFNVVNTTKRDAGKYRCMICTEGGVGISNYAELVVKEPPVPIAPPQLASVGATYLWIQLNANSINGDGPIVAREVEYCTASGSWNDRQPVDSTSYKIGHLDPDTEYEISVLLTRPGEGGTGSPGPALRTRTKCADPMRGPRKLEVVEVKSRQITIRWEPFGYNVTRCHSYNLTVHYGYQVGGQEQVREEVSWDTDNSHPQHTITNLSPYTNVSVKLILMNPEGRKESQELTVQTDEDLPGAVPTESIQGSAFEEKIFLQWREPTQTYGVITLYEITYKAVSSFDPEIDLSNQSGRVSKLGNETHFLFFGLYPGTTYSFTIRASTAKGFGPPATNQFTTKISAPSMPAYEFETPLNQTDNTVTVMLKPAQSRGAPVSVYQIVVEEERPRRTKKTTEILKCYPVPIHFQNASILNSQYYFAAEFPADSLQAAQPFTIGDNKTYNGYWNTPLLPHKSYRIYYQAASRANGETKIDCVRVATKGAVTPKPVPEPEKQTDHTVKIAGVIAGILLFVIIFLGVVLVMKKRKLAKKRKETMSSTRQEMTVMVNSMDKSYAEQGTNCDEAFSFMGTHNLNGRSVSSPSSFTMKTNTLSTSVPNSYYPDETHTMASDTSSLAQPHTYKKREAADVPYQTGQLHPAIRVADLLQHITQMKCAEGYGFKEEYESFFEGQSAPWDSAKKDENRMKNRYGNIIAYDHSRVRLQMLEGDNNSDYINGNYIDGYHRPNHYIATQGPMQETIYDFWRMVWHENTASIIMVTNLVEVGRVKCCKYWPDDTEIYKDIKVTLIDTELLAEYVIRTFAVEKRGIHEIREIRQFHFTGWPDHGVPYHATGLLGFVRQVKSKSPPNAGPLVVHCSAGAGRTGCFIVIDIMLDMAEREGVVDIYNCVRELRSRRVNMVQTEEQYVFIHDAILEACLCGDTSIPASQVRSLYYDMNKLDPQTNSSQIKEEFRTLNMVTPTLRVEDCSIALLPRNHEKNRCMDILPPDRCLPFLITIDGESSNYINAALMDSYKQPSAFIVTQHPLPNTVKDFWRLVLDYHCTSVVMLNDVDPAQLCPQYWPENGVHRHGPIQVEFVSADLEEDIISRIFRIYNASRPQDGHRMVQQFQFLGWPMYRDTPVSKRSFLKLIRQVDKWQEEYNGGEGRTVVHCLNGGGRSGTFCAISIVCEMLRHQRTVDVFHAVKTLRNNKPNMVDLLDQYKFCYEVALEYLNSG
In the case of B1, the “tyrosine phosphorylation of PIPK1γ (immunoprecipitation with PIPK1γ antibody, blot with phospho-tyrosine antibody)” value is listed as “Phosphorylation levels of PIPK1γ were higher in osteoblasts from PTPµ^-/- than in those from WT mice”.
